T1: AXL in mouse lung tissue (mouse (endogenous in mouse lung tissue), UniProt Q00993 19-888)
T1 sequence: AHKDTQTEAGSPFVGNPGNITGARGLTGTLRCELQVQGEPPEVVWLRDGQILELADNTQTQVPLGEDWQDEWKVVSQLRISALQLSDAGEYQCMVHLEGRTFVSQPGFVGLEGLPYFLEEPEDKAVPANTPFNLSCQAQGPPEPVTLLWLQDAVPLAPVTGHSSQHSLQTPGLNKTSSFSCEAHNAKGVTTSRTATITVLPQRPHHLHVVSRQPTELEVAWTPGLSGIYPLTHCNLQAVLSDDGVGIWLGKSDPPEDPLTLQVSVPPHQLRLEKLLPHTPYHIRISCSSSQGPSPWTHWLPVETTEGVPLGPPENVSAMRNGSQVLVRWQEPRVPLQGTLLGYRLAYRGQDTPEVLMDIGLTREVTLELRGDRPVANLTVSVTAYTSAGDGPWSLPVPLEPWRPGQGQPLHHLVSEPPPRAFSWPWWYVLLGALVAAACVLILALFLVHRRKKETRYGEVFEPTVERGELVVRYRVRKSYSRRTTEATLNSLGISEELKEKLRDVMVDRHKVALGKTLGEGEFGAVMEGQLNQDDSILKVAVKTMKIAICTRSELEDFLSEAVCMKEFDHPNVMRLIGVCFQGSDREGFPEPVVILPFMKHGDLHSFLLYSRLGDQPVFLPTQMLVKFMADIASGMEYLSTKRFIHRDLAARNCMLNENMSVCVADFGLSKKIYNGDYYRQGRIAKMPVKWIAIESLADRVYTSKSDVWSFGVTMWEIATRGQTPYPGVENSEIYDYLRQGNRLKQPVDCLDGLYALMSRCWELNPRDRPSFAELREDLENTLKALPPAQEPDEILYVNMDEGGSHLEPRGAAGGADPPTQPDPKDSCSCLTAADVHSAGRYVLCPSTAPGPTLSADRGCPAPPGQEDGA


What was measured:
[1] = molecular target: recombinant human AXL, biotinylated (human) (UniProt P30530); experiment: SPR
AXL in mouse lung tissue = molecular target: T1, AXL in mouse lung tissue; experiment: FRET or BRET

recombinant human AXL, biotinylated (human), sequence (P30530 26-894): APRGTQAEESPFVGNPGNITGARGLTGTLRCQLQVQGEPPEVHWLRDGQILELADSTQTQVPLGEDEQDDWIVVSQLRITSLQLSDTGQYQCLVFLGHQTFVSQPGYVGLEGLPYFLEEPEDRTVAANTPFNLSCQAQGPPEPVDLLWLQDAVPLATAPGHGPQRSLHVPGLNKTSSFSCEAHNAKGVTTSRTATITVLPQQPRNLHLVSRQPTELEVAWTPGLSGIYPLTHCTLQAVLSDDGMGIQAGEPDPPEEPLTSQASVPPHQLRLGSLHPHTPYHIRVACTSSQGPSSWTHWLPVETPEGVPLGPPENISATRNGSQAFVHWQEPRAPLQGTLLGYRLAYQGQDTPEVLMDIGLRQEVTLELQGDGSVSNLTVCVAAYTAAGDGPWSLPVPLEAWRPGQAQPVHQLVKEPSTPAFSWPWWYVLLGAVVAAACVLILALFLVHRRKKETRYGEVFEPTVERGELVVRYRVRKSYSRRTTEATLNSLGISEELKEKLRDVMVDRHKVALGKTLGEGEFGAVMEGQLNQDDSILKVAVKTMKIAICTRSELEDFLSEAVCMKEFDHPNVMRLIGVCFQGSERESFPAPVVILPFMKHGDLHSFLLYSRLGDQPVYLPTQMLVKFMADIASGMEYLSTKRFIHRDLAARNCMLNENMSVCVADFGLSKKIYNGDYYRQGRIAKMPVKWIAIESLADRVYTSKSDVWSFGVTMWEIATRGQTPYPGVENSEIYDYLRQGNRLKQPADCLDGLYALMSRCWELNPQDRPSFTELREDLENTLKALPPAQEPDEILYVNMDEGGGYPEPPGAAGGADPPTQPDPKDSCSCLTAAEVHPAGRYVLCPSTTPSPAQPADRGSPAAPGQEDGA
recombinant human GAS6, sequence (Q14393 31-678): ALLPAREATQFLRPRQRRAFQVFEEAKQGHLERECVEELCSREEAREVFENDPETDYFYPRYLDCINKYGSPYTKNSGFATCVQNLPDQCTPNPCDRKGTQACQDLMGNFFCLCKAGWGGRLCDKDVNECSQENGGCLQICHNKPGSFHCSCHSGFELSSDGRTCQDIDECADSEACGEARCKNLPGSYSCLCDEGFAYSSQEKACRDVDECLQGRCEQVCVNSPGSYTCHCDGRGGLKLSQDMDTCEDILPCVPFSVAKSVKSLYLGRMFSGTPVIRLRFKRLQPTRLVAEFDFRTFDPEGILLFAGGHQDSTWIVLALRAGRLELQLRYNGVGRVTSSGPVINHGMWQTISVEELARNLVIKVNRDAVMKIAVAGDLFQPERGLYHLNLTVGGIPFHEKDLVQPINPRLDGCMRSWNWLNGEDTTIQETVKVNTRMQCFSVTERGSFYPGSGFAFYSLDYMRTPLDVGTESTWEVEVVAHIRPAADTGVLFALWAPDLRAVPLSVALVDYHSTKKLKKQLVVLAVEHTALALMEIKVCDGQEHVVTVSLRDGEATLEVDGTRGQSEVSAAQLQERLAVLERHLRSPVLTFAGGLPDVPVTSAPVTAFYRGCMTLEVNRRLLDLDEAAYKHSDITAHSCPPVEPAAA

Row | Molecule | Kd [1] [nM] | FRET efficiency (%Ef) of one coincident region (AXL in mouse lung tissue) [%]
1 | recombinant human GAS6 (from UniProt Q14393 31-678) (ligand) | 0.11 | –
2 | recombinant human PROS1 (from UniProt P07225 42-676) (ligand) | 52.1 | –
3 | GAS6 in mouse lung tissue (ligand) VLLRAREAAQFLRPRQRRAYQVFEEAKQGHLERECVEEVCSKEEAREVFENDPETEYFYPRYQECMRKYGRPEEKNPDFAKCVQNLPDQCTPNPCDKKGTHICQDLMGNFFCVCTDGWGGRLCDKDVNECVQKNGGCSQVCHNKPGSFQCACHSGFSLASDGQTCQDIDECTDSDTCGDARCKNLPGSYSCLCDEGYTYSSKEKTCQDVDECQQDRCEQTCVNSPGSYTCHCDGRGGLKLSPDMDTCEDILPCVPFSMAKSVKSLYLGRMFSGTPVIRLRFKRLQPTRLLAEFDFRTFDPEGVLFFAGGRSDSTWIVLGLRAGRLELQLRYNGVGRITSSGPTINHGMWQTISVEELERNLVIKVNKDAVMKIAVAGELFQLERGLYHLNLTVGGIPFKESELVQPINPRLDGCMRSWNWLNGEDSAIQETVKANTKMQCFSVTERGSFFPGNGFATYRLNYTRTSLDVGTETTWEVKVVARIRPATDTGVLLALVGDDDVVPISVALVDYHSTKKLKKQLVVLAVEDVALALMEIKVCDSQEHTVTVSLREGEATLEVDGTKGQSEVSTAQLQERLDTLKTHLQGSVHTYVGGLPEVSVISAPVTAFYRGCMTLEVNGKILDLDTASYKHSDITSHSCPPVEHATP | – | 6.96
